Results from US20230303695A1 (SHANGHAI XBH BIOTECHNOLOGY, published 2023).
Where a chain is given by its changes, count along the chain named.

T1: IGSF8 protein without D1 domain (human, UniProt Q969P0 150-579, limits assumed)
T1 construct: domain: D2-4; also called D24; D2-4
T1 sequence (looked up): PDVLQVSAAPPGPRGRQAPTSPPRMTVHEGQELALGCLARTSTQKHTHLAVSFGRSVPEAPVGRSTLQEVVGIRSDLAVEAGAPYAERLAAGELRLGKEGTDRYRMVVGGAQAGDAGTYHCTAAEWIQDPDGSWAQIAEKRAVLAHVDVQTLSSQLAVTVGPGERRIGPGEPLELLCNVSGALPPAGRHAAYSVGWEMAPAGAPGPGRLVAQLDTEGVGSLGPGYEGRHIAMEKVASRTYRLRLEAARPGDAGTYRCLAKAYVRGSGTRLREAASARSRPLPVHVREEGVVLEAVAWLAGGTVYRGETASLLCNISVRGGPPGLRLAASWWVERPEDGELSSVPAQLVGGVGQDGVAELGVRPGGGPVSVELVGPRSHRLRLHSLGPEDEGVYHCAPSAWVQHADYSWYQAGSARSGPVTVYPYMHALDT

T2: human IGSF8 expressed on the cell surface (human, UniProt Q969P0 28-613)
T2 construct: whole, on cells; also called human IGSF8 on CT26 cells; IGSF8 on MC38 cells
T2 sequence (looked up): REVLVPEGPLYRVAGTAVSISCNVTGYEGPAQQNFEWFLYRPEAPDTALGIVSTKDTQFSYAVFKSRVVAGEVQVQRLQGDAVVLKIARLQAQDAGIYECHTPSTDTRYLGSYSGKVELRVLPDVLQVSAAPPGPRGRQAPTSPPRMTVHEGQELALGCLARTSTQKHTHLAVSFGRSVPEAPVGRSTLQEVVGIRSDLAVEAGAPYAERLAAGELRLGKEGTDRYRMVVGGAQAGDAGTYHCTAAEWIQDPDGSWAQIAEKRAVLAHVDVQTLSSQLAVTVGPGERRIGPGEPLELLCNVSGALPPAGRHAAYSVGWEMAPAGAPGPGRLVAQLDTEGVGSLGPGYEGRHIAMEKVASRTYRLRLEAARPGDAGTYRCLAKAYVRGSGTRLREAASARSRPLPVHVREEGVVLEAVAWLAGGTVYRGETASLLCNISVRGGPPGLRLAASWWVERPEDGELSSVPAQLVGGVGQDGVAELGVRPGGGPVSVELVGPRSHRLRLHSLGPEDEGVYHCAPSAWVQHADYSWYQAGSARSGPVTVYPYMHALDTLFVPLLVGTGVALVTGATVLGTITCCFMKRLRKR

T3: recombinant human IGSF8 extracellular domain tagged by a human Fc region (IGSF8-hFc) (human, UniProt Q969P0 28-579, biotin label in Examples 17, 18 and 28 (site not given))
T3 construct: also called IGSF8-Fc fusion protein; IGSF8-hFc-biotin; not shown: human Fc region
T3 sequence: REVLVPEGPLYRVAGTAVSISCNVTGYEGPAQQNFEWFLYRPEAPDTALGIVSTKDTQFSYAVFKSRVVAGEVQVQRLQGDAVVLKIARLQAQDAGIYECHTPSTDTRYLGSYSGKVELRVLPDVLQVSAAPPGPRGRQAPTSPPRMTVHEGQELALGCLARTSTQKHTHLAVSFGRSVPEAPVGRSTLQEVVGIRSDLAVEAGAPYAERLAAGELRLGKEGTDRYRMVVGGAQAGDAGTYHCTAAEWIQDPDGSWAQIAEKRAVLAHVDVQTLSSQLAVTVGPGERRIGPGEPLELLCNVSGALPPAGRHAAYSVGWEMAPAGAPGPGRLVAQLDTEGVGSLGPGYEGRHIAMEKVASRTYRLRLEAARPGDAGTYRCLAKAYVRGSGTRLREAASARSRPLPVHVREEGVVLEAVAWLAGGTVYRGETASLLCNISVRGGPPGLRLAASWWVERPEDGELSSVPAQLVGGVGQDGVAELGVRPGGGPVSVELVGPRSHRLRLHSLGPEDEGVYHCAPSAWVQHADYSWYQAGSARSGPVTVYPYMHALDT

T4: D1 domain of IGSF8 (recombinant protein) (human, UniProt Q969P0 28-149, limits assumed)
T4 construct: domain: D1 (Ig V-set domain); also called Ig V-set domain of IGSF8
T4 sequence (looked up): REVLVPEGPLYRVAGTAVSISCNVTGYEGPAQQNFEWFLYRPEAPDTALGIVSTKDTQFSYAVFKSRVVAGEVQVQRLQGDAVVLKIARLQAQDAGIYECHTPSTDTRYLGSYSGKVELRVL

T5: full-length IGSF8 (recombinant antigen of the SPR screen; IGSF8 target antigen of the phage panning) (human, UniProt Q969P0 28-579, limits assumed)
T5 sequence (looked up): T3 sequence

B1: Antibody C38 (2B4) (antibody, V domains shown)
VH: EVQLVESGGGLEQPGGSLRLSCAGSGFTFRDYAMTWVRQAPGKGLEWVSSISGSGGNTYYADSVKGRFTISRDNSKNTLYLQMNSLRAEDTAIYYCARGEYSSGWPSWFDPWGQGTLVTVSS
VL: EIVLTQSPSSLSASVGDRVTISCRASRTVGTFLNWYQQRPGKPPQALILGVSILEGGVSSRFSGAGSGTEFSLTISSLQPEDIGTYYCQQSHDVPRTFGQGTKVDLRR
notes: also called mAb-2B4 (C38)
B2: Antibody C37 (3F12) (antibody, V domains shown)
VH: EVQLVQSGGGLVKPGGSLRLSCAASGFTFSSYSMNWVRQAPGKGLEWVSSISSSSSYIYYADSVKGRFTISRDNAKNSLYLQMNSLRAEDTAVYYCAGRQYDFWSGWDWFDPWGQGTLVTVSS
VL: DIQLTQSPSSLSASVGDRVTITCRASQSISTYLNWYQQKPGKAPKLLIHDASILQSGVPSRFSGSGSGTDFTLTISSLQAEDFATYYCQQSYSTLPYTFGQGTKVEIK
notes: also called mAb-3F12(C37)
B3: Antibody C30 (B34) (antibody, V domains shown)
VH: EVQLLESGGGLVQPGGSLRLSCAASGFTFSSYAMSWVRQAPGKGLEWVSGITGSGGSTYYADSVKGRFTISRDNSKNTLYLQMNSLRAEDTAVYYCARGRQVDKWGQGTLVTVSS
VL: DIMLTQSPSSLSASVGDRVTITCRASQSIHNYLNWIQQTPGKAPKLLVFAASTLQRGVPPRYSGRGSGTEFTLTISSLQPEDFATYYCQQSYTTPLTFGGGTKVEIRR
notes: Expressed in CHO cells; also called mAb-B34 (C30)
B4: KIR3DL2 D1 construct on CT26 cells (receptor, human, UniProt P43630 22-118, looked up)
chain: LMGGQDKPFLSARPSTVVPRGGHVALQCHYRRGFNNFMLYKEDRSHVPIFHGRIFQESFIMGPVTPAHAGTYRCRGSRPHSLTGWSAPSNPLVIMVT
notes: domain: D1; also called D1/D3 construct
B5: KIR3DL2 D3 construct on CT26 cells (receptor, human, UniProt P43630 222-340, looked up)
chain: EKPSLSAQPGPTVQAGENVTLSCSSWSSYDIYHLSREGEAHERRLRAVPKVNRTFQADFPLGPATHGGTYRCFGSFRALPCVWSNSSDPLLVSVTGNPSSSWPSPTEPSSKSGICRHLH
notes: domain: D3; also called D1/D3 construct
B6: KIR3DL1 D3 construct on CT26 cells (receptor, human, UniProt P43629 222-340, looked up)
chain: EKPSLSAQPGPKVQAGESVTLSCSSRSSYDMYHLSREGGAHERRLPAVRKVNRTFQADFPLGPATHGGTYRCFGSFRHSPYEWSDPSDPLLVSVTGNPSSSWPSPTEPSSKSGNPRHLH
notes: as for B5
B7: KIR3DL1 D1 construct on CT26 cells (receptor, human, UniProt P43629 22-118, looked up)
chain: HMGGQDKPFLSAWPSAVVPRGGHVTLRCHYRHRFNNFMLYKEDRIHIPIFHGRIFQESFNMSPVTTAHAGNYTCRGSHPHSPTGWSAPSNPVVIMVT
notes: as for B4
B8: Antibody C35 (1B1) (antibody, V domains shown)
VH: EVQLLESGGGLVQPGGSLRLSCAVSGFTFNSFAMSWVRQAPGKGLEWVSAISGSGGGTYYADSVKGRFTISRDNSKNTLYLQMNSLRAEDTAVYYCAREGWEVRTPGYFDYWGQGTLVTVSS
VL: DVVMTQSPSSLSASVGDRVTITCRASHRIFSYLTWYHQKPGKAPNLLISGASSLGAGVPSRFSGSGSGTDFTLTISSLQPEDFGTYYCQQSFSDPYTFGQGTKLEIKR
notes: also called mAb-1B1 (C35)
B9: KIR2DL2 expressed on CT26 cells (receptor, human, UniProt P43627 22-348, looked up)
chain: HEGVHRKPSLLAHPGRLVKSEETVILQCWSDVRFEHFLLHREGKFKDTLHLIGEHHDGVSKANFSIGPMMQDLAGTYRCYGSVTHSPYQLSAPSDPLDIVITGLYEKPSLSAQPGPTVLAGESVTLSCSSRSSYDMYHLSREGEAHECRFSAGPKVNGTFQADFPLGPATHGGTYRCFGSFRDSPYEWSNSSDPLLVSVIGNPSNSWPSPTEPSSKTGNPRHLHILIGTSVVIILFILLFFLLHRWCSNKKNAAVMDQESAGNRTANSEDSDEQDPQEVTYTQLNHCVFTQRKITRPSQRPKTPPTDIIVYAELPNAESRSKVVSCP
notes: whole, on cells
B10: KIR2DL5A expressed on CT26 cells (receptor, human, UniProt Q8N109 22-375, looked up)
chain: HEGGQDKPLLSAWPSAVVPRGGHVTLLCRSRLGFTIFSLYKEDGVPVPELYNKIFWKSILMGPVTPAHAGTYRCRGSHPRSPIEWSAPSNPLVIVVTGLFGKPSLSAQPGPTVRTGENVTLSCSSRSSFDMYHLSREGRAHEPRLPAVPSVNGTFQADFPLGPATHGGTYTCFGSLHDSPYEWSDPSDPLLVSVTGNSSSSSSSPTEPSSKTGIRRHLHILIGTSVAIILFIILFFFLLHCCCSNKKNAAVMDQEPAGDRTVNREDSDDQDPQEVTYAQLDHCVFTQTKITSPSQRPKTPPTDTTMYMELPNAKPRSLSPAHKHHSQALRGSSRETTALSQNRVASSHVPAAGI
notes: whole, on cells
B11: KIR2DL5B expressed on CT26 cells (receptor, human, UniProt Q8NHK3 22-375, looked up)
chain: B10 chain with N152D, G174S
notes: whole, on cells

biological target: T1, IGSF8 protein without D1 domain; test: FACS, single antibody dose, IGSF8-D24 (D2-D4 with TM, no D1) expressed on CT26 cells

Binder	binding result
B1	no binding (tested: not shown on the sheet)

biological target: T2, human IGSF8 expressed on the cell …; test: FACS on CT26 cells with forced surface expression of human IGSF8
Protocol: For antibody binding assays based on cell-expressed antigens, 100,000 cells overexpressing the antigen (either the full-length IGSF8 or the D1 domain thereof) were washed with PBS buffer containing 2% FBS, and then incubated with 100 μL of antibodies or IgG of different concentrations for 30 minutes on ice. Cells were then washed twice with wash buffer, and incubated with 100 μL of 1:100 anti-human Fc-PE antibody for 15 minutes on ice. Cells were washed twice with wash buffer and analyzed on a FACS analyzer (CytoFlex, Beckman).

EC50 [nM]	Binder
5.93	B2
7.88	B3
4.64	B1

biological target: T3, recombinant human IGSF8 extracellular …; test: FACS, biotin-labelled IGSF8 on CT26 cells expressing KIR3DL1/2 constructs, MFI normalized to Thy1.1

Binder	binding result
B4	no binding (tested: not shown on the sheet)
B5	no binding (tested: not shown on the sheet)
B6	no binding (tested: not shown on the sheet)
B7	no binding (tested: not shown on the sheet)

biological target: T4, D1 domain of IGSF8 (recombinant protein); test: SPR, Biacore T100

Kd [nM]	Binder
< 50	B2
< 50	B3
< 50	B1
< 50	B8

biological target: T5, full-length IGSF8 (recombinant antigen …); test: SPR, Biacore T100

Kd [nM]	Binder
22.5	B2
13.8	B3
3.83	B1
2.06	B8

biological target: T3, recombinant human IGSF8 extracellular …; test: FACS, biotin-labelled IGSF8-hFc on CT26 cells expressing the KIR, MFI normalized to Thy1.1
Protocol: For this experiment, different human KIR receptors (KIR2DL1, KIR2DL2, KIR2DL3, KIR2DL4, KIR2DL5A, KIR2DL5B, KIR3DL1, KIR3DL2, KIR3DL3) were first cloned into a proprietary lentiviral vector containing a thy1.1 tag (FIG. 17A). Then mouse CT26 cells, were transducted by these lentiviral constructs, and IGSF8 binding was tested with biotin-labelled recombinant IGSF8 hFc fusion protein. The mean fluorescence intensity (MFI) of IGSF8 binding to different CT26 cells were normalized by the expression of different KIRs on CT26 cells using an anti-thy1.1 mAb (Biolegend) via flow cytometry.
KLRC1 also contains a ITIM motif in its intracellular domain, and was known to be a inhibitory receptor of NK or CD8⁺ T cells as part of a heterodimer with KLRD1 on the cell surface. […] Specifically, 100,000 CT26 cells overexpressing the antigens (KIRs or KLRs) were washed with PBS buffer containing 2% FBS, and incubated with 100 μL IGSF8 recombinant proteins or antibodies (5 μg/mL) for 30 minutes on ice. Cells were then washed twice with wash buffer, and incubated with 100 μL of 1:100 anti-human Fc-PE antibody for 15 minutes on ice. Cells were washed twice with wash buffer and analyzed on a FACS analyzer (CytoFlex, Beckman). In these experiments, the mean fluorescence intensity (MFI) of IGSF8 binding to different CT26 cells were normalized by the expression of different KLRs on CT26 cells using an anti-thy1.1 mAb via flow cytometry.

binding result	Binder
no binding	B9
no binding	B10
no binding	B11
